In publication PMC5934816, “Towards development of aptamers that specifically bind to lactate dehydrogenase of Plasmodium falciparum through epitopic targeting” one finds binding result and Kd data, which are given here for two molecules.

The target in series [1] is rPvLDH, lactate dehydrogenase (Plasmodium vivax, UniProt Q4PRK9 1-316). Kind of series: ELONA. The following applies: protein: recombinant; chain copies: 4.
Series [2] has as its target rPfLDH, lactate dehydrogenase (Plasmodium falciparum, UniProt Q71T02 1-316). Kind of series: ELONA; ELONA: 500 ng immobilized protein; aptamer in HMCKN (2 mM HEPES, 0.2 mM MgCl2, 0.2 mM CaCl2, 0.2 mM KCl, 15 mM NaCl, pH 7.4), 2 h, room temperature; washes HMCKN then 25 mM TBS pH 7.6, 0.1% NP-40. The following applies: protein: recombinant; chain copies: 4; label: 5'-biotin.

B1: C7 concatemer control (ssDNA)
DNA: ACTTTGCACATGCTTATTCTTGTCTCCCATGCCTGTTGTGAGCCTCCTAAC
Regarding B1, the binding result in series [1] and in series [2] was “no binding” throughout.

B2: pL1 (ssDNA)
DNA: GTTCGATTGGATTGTGCCGGAAGTGCTGGCTCGAAC
Usually Kd stands for the free concentration of one partner at which half of the binding sites on the other are occupied at equilibrium, for simple one-to-one binding. For the molecule B2, the Kd in series [1] stood at 79.2 ± 12.7 nM.
